Laboratory results reported in paper PMC5481773, “Structural insights into the function of ZRANB3 in replication stress response” (Nature Communications, 2017).
Changes are numbered by the printed parent chain. Names may count otherwise.

B1: N1036A: ZRANB3 HNH active site mutant (protein, UniProt Q5FWF4 1-1079, looked up, variant N1036A)
DNA annealing helicase and …: MPRVHNIKKSLTPHISCVTNESDNLLDFLPDRLRAKLLPFQKDGIIFALKRNGRCMVADEMGLGKTIQAIGITYFYKEEWPLLIVVPSSLRYPWTEEIEKWIPELSPEEINVIQNKTDVRRMSTSKVTVLGYGLLTADAKTLIDALNNQNFKVVIVDESHYMKSRNATRSRILLPIVQKARRAILLTGTPALGRPEELFMQIEALFPQKFGRWTDYAKRYCNAHIRYFGKRPQWDCRGASNLNELHQLLSDIMIRRLKTEVLTQLPPKVRQRIPFDLPSAAAKELNTSFEEWEKIMRTPNSGAMETVMGLITRMFKQTAIAKAGAVKDYIKMMLQNDSLKFLVFAHHLSMLQACTEAVIENKTRYIRIDGSVSSSERIHLVNQFQKDPDTRVAILSIQAAGQGLTFTAASHVVFAELYWDPGHIKQAEDRAHRIGQCSSVNIHYLIANGTLDTLMWGMLNRKAQVTGSTLNGRKEKIQAEEGDKEKWDFLQFAEAWTPNDSSEELRKEALFTHFEKEKQHDIRSFFVPQPKKRQLMTSCDESKRFREENTVVSSDPTKTAARDIIDYESDVEPETKRLKLAASEDHCSPSEETPSQSKQIRTPLVESVQEAKAQLTTPAFPVEGWQCSLCTYINNSELPYCEMCETPQGSAVMQIDSLNHIQDKNEKDDSQKDTSKKVQTISDCEKQALAQSEPGQLADSKEETPKIEKEDGLTSQPGNEQWKSSDTLPVYDTLMFCASRNTDRIHIYTKDGKQMSCNFIPLDIKLDLWEDLPASFQLKQYRSLILRFVREWSSLTAMKQRIIRKSGQLFCSPILALEEITKQQTKQNCTKRYITKEDVAVASMDKVKNVGGHVRLITKESRPRDPFTKKLLEDGACVPFLNPYTVQADLTVKPSTSKGYLQAVDNEGNPLCLRCQQPTCQTKQACKANSWDSRFCSLKCQEEFWIRSNNSYLRAKVFETEHGVCQLCNVNAQELFLRLRDAPKSQRKNLLYATWTSKLPLEQLNEMIRNPGEGHFWQVDHIKPVYGGGGQCSLDALQTLCTVCHKERTARQAKERSQVRRQSLASKHGSDITRFLVKK
B2: D1020A: ZRANB3 HNH active site mutant (protein, UniProt Q5FWF4 1-1079, looked up, variant D1020A)
DNA annealing helicase and …: B1 DNA annealing helicase and … with D1020A, A1036N
B3: H1021A: ZRANB3 HNH active site mutant (protein, UniProt Q5FWF4 1-1079, looked up, variant H1021A)
DNA annealing helicase and …: B1 DNA annealing helicase and … with H1021A, A1036N
B4: H1045A: ZRANB3 HNH active site mutant (protein, UniProt Q5FWF4 1-1079, looked up, variant H1045A)
DNA annealing helicase and …: B1 DNA annealing helicase and … with A1036N, H1045A
B5: R947Q: cancer associated ZRANB3 mutant (protein, UniProt Q5FWF4 1-1079, looked up, variant R947Q)
DNA annealing helicase and …: B1 DNA annealing helicase and … with R947Q, A1036N
B6: K988A: ZRANB3 basic residues HNH mutant (protein, UniProt Q5FWF4 1-1079, looked up, variant K988A)
DNA annealing helicase and …: B1 DNA annealing helicase and … with K988A, A1036N
B7: D1020Y: cancer associated ZRANB3 mutant (protein, UniProt Q5FWF4 1-1079, looked up, variant D1020Y)
DNA annealing helicase and …: B1 DNA annealing helicase and … with D1020Y, A1036N
B8: H1015A: ZRANB3 HNH active site mutant (protein, UniProt Q5FWF4 1-1079, looked up, variant H1015A)
DNA annealing helicase and …: B1 DNA annealing helicase and … with H1015A, A1036N
B9: T66A: cancer associated ZRANB3 mutant (protein, UniProt Q5FWF4 1-1079, looked up, variant T66A)
DNA annealing helicase and …: B1 DNA annealing helicase and … with T66A, A1036N
B10: K1046A, R1048A: ZRANB3 double mutant in helix α8 (protein, UniProt Q5FWF4 1-1079, looked up, variant K1046A R1048A)
DNA annealing helicase and …: B1 DNA annealing helicase and … with A1036N, K1046A, R1048A
B11: K998A: ZRANB3 basic residues HNH mutant (protein, UniProt Q5FWF4 1-1079, looked up, variant K998A)
DNA annealing helicase and …: B1 DNA annealing helicase and … with K998A, A1036N
B12: K984A: ZRANB3 basic residues HNH mutant (protein, UniProt Q5FWF4 1-1079, looked up, variant K984A)
DNA annealing helicase and …: B1 DNA annealing helicase and … with K984A, A1036N
B13: R1009A: ZRANB3 basic residues HNH mutant (protein, UniProt Q5FWF4 1-1079, looked up, variant R1009A)
DNA annealing helicase and …: B1 DNA annealing helicase and … with R1009A, A1036N
B14: R987A: ZRANB3 basic residues HNH mutant (protein, UniProt Q5FWF4 1-1079, looked up, variant R987A)
DNA annealing helicase and …: B1 DNA annealing helicase and … with R987A, A1036N

test system: splayed DNA duplex; test: Nuclease assay with wild-type and mutant ZRANB3 proteins; assay type: biochemical; settings: 200 nM nuclease, 10 nM fluorescently labelled DNA substrate, 2 mM ATP, 30 °C, 60 min, native PAGE (Fig. 3c)
Source text: Figure 3 Characterisation of the ZRANB3 HNH active site. (a) Overlay of the T4 endonuclease VII (yellow) and the ZRANB3 HNH (white) structures. […] (b) Overlay of the T4 endonuclease VII (yellow, labels in italics) and the ZRANB3 HNH (white) structures. Mg^2+ ion in T4 endonuclease is shown as a purple sphere. His1021, Asp1020 and His1045 in the HNH structure overlap with the active site residues of T4 endonuclease VII. (c) Nuclease assay with the wild-type and mutant ZRANB3 proteins in the presence and absence of ATP. Reactions were analysed by native poly-acrylamide gel electrophoresis. Indicated are mobilities of the fluorescently labelled DNA substrate and product. (d) Nuclease assay with non-hydrolysable ATP homologues. Shown are controls with the wild-type ZRANB3 and the ATPase dead K65R mutant in the presence of ATP.
Oligonucleotides used in the nuclease assays (5′-[…]-[…]-3′ and Cy3 5′-end-labelled 5′-[…]-[…]-3′) were incubated in 10 mM Tris-HCl pH 7.5, 50 mM NaCl for 3 min at 94 °C, after which the reactions were allowed to gradually cool down.
The nuclease assays with ZRANB3 was performed essentially as described in ref. [9]. Briefly, reaction mixtures containing the indicated nuclease (200 nM) and fluorescently labelled DNA substrate (10 nM) in 10 μl of reaction buffer (50 mM Tris-HCl; 50 mM NaCl; 5 mM MgCl2; 2 mM ATP (Sigma); pH 7.5) were incubated at 30 °C for 60 min. The reactions were stopped by incubation with 0.1% SDS and 4 mg ml^−1 of proteinase K at 30 °C for 45 min. The reactions were then mixed with sucrose (10% final concentration) and resolved in a 10% polyacrylamide gel in 0.5 × TBE buffer (45 mM Tris-borate, 1 mM EDTA; pH 7.5). The fluorescent DNA species were visualized and quantified using Pharos Mx imager and Quantity one software (BioRad).

| Molecule | ZRANB3 endonuclease activity of mutant protein |
| --- | --- |
| B1 | substantially reduced |
| B2 | completely abrogated |
| B3 | completely abrogated |
| B4 | completely abrogated |

test system: not listed separately; test: NADH-coupled ATPase assay of ZRANB3 proteins; assay type: biochemical; settings: 150 nM ZRANB3, 5 mM ATP, 0.5 μM flap DNA, 24 °C, A340 nm, average rates
Method: The NADH-coupled ATPase assay is based on a reaction in which the regeneration of hydrolysed ATP is coupled to the oxidation of NADH[59]. It was used as described, with minor modifications. ZRANB3 (150 nM) was added to a 150 μl reaction containing 25 mM Tris-Cl pH 7.5, 13 mM MgCl2, 1.8 mM DTT, 100 μg ml^−1 BSA, 3 mM phosphoenolpyruvate, 36 U ml^−1 pyruvate kinase, 20 U ml^−1 lactate dehydrogenase, 0.5 μM flap DNA, and 5 mM ATP, with 750 μM NADH added immediately before ZRANB3. Reactions were mixed for 1 min on a shaker at 23 °C and analysed by measuring A340 nm at 20 s intervals during 60 min, on a Spectramax 250 microplate spectrophotometer at 24 °C. Linear titration of freshly prepared NADH was performed to obtain a standard curve for units of absorbance mM^−1 NADH. ATPase rates were calculated from data collected between time points where product formation was linear with respect to time.

| ATP hydrolysis rate [µmol/L/min] | Molecule |
| --- | --- |
| 14.05 ± 2.46 | B1 |
| 10.24 ± 1.15 | B5 |
| 18.83 ± 1.94 | B6 |
| 11.60 ± 3.30 | B7 |
| 12.94 ± 0.67 | B2 |
| 18.67 ± 2.24 | B8 |
| 0.45 ± 0.03 | B9 |
| 18.59 ± 1.98 | B3 |
| 8.91 ± 0.66 | B4 |
| 19.38 ± 1.74 | B10 |
| 15.12 ± 0.48 | B11 |
| 20.93 ± 2.01 | B12 |
| 7.49 ± 2.57 | B13 |
| 6.34 ± 0.40 | B14 |

same assay, conditions: 150 nM ZRANB3, 5 mM ATP, 0.5 μM flap DNA, 24 °C, average rates

| k [min⁻¹] | Molecule |
| --- | --- |
| 93.71 ± 16.43 | B1 |
| 68.26 ± 7.70 | B5 |
| 125.55 ± 12.95 | B6 |
| 77.36 ± 22.04 | B7 |
| 86.32 ± 4.49 | B2 |
| 124.46 ± 14.96 | B8 |
| 3.02 ± 0.21 | B9 |
| 123.95 ± 13.19 | B3 |
| 59.42 ± 4.40 | B4 |
| 129.23 ± 11.62 | B10 |
| 100.85 ± 3.22 | B11 |
| 139.56 ± 13.45 | B12 |
| 49.94 ± 17.14 | B13 |
| 42.31 ± 2.70 | B14 |
